This is an account of results in patent US20240132589A1 (ONCORESPONSE, published 2024).

Substitutions are numbered along the chain they refer to.

The labels stand for the following.
B1: B2H4-35 (antibody, V domains shown)
VH: QVQLVESGGRVVQPGTPLRLSCAASGFSLSTYAMSWVRQAPGKGLEWVAWIYNDGSTYYAAWAKGRFTISRDTSKNTLYLQTNSLKPDDTAVYYCAREGDYIGYFNIWGQGTLVTVSS
VL: DVVMTQTPSSVSAALGGTVTIKCQASQSIGSNLAWYQLKPGQRPKLLIYAAATLASGGSSRFKGSGSGTDFTLTISSLEPADAATYYCQSYVSGSSDVAFGGGTEVVVK
notes: Humanized variant, human IgG4 / kappa
B2: B2H4-51 (antibody, V domains shown)
VH: EVQLLESGGGLVQPGTSLTLSCAASGFSLSTYAMSWVRQAPGKGLEWIGWIYNDGSTYYAAWAKGRFTISKDTSKTTLYLQITSLRAEDTATYFCAREGDYIGYFNIWGQGTLVTVSS
VL: DIQMTQSPSSLSASVGDRVTITCQASQSIGSNLAWYQLKPGQRPKLLIYAAATLASGVPSRFKGSGSGTDFTLTISSLQSEDAATYYCQSYVSGSSDVAFGGGTEVVVK
notes: as for B1
B3: B2H4-13 (antibody, V domains shown)
VH: QVQLEESGGRVVQPGRSLRLSCAASGFSLSTYAMSWVRQAPGKGLEWIGWIYNDGSTYYAAWAKGRFTISKDTSKTTVFLQMNSLKPDDTATYFCAREGDYIGYFNIWGQGTLVTVSS
VL: B2 VL with Q3E, L11V, I21L, L38Q, R43A, S80P, A83F
notes: as for B1

T3 sequence (Q8N423 22-460 limits assumed): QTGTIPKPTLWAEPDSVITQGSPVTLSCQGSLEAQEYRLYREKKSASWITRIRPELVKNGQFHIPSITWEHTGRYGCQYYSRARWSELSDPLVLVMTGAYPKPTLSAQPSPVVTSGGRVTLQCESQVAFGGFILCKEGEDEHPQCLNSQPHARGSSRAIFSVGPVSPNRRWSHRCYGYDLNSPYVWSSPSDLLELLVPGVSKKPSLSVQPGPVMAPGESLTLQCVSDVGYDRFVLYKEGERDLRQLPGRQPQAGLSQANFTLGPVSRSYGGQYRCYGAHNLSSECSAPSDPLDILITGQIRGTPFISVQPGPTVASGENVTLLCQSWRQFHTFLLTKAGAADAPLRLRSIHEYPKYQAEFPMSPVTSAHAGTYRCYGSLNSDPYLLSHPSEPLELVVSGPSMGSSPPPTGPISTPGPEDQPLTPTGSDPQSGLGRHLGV

The target of the first test is T1, Recombinant human LILRB2 protein (ELISA antigen) (human, UniProt Q8N423 22-460).
T1 construct: also called LILRB2-His; recombinant LILRB2
T1 sequence (Q8N423 other isoform, or with tags, fused parts or gaps limits assumed): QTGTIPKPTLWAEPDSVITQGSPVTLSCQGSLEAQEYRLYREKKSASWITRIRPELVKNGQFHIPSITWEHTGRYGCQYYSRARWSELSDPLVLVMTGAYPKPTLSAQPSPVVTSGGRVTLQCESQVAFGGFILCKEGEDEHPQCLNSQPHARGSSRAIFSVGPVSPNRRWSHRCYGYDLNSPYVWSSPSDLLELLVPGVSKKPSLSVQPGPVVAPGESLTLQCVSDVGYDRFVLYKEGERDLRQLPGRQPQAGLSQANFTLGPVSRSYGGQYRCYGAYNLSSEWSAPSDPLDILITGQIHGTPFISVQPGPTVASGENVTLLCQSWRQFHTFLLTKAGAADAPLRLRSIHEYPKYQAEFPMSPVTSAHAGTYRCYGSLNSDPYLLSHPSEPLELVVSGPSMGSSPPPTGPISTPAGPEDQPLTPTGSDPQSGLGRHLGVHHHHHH
Put plainly: ELISA, plate-coated recombinant human LILRB2. On the procedure: (§1) To confirm binding to human and cynomolgus LILRB2, antibodies in supernatants were evaluated for binding by enzyme-linked immunosorbent assay (ELISA). Recombinant LILRB2 proteins (human: SEQ ID NO: 48; cynomolgus) were diluted in PBS to 2 μg/mL and added to 384-well high-binding ELISA plates (Greiner Bio-One Microlon™) at 25 μL/well and incubated at 4° C. overnight. The plates were washed three times with Wash Buffer (0.05% Tween® 20 in PBS), using a microplate washer and then blocked with 90 μL/well of ELISA Blocking Buffer A (1% BSA in PBS) for 1 hour at room temperature (RT). After blocking, 25 μL/well of LILRB2 antibodies or isotype control were added to the plates and incubated for 1 hour at RT. After primary antibody binding, plates were washed three times with Wash Buffer using a microplate washer. Secondary detection antibody (HRP-goat anti-rabbit Fab fragment) was diluted to 1:3000 in assay diluent (1% BSA in PBS) and 25 μL/well was added to plates and incubated at RT protected from light for 1 hour. Following incubation, plates were washed four times with Wash Buffer, using a microplate washer. After removal of the final wash, 25 μL/well of 1-Step™ Ultra TMB-ELISA Substrate Solution (Thermo Fisher, No. 34028) was added and plates were incubated for 5-10 min at RT, protected from light. After development, the reaction was stopped by addition of 25 μL/well of 0.3 M HCl, and plates were read using an EnVision (Perkin Elmer) microplate reader at 450 nm. EC₅₀ values were calculated based on log concentration of the primary antibodies at optical density at 450 nm.
(§2) Select humanized variant antibodies were purified and tested for their ability to bind human LILRB2 by ELISA, using the method described in Example 2, and binding to HEK293T cells expressing human LILRB2, using the method described in Example 4. Representative data are shown for IgG4 variants in Table 6.
A general note: In an ELISA, binding on a coated surface is turned into a signal by an enzyme label.
Consider B1, for which the EC50 – broadly, the concentration needed to bring the measured effect to its halfway point – is 2.75 ng/mL.

Regarding B2, the EC50 was 3.27 ng/mL.

Regarding B3, the EC50 turned out to be 3.55 ng/mL.

The target of the next test is T2, Human LILRB2 on stably transduced HEK293T cells (human, UniProt Q8N423 22-597).
T2 construct: Lentiviral transduction (G&P Biosciences LTV2992); also called HEK293T-LILRB2; LILRB2-expressing HEK293T cells
T2 sequence (Q8N423 other isoform, or with tags, fused parts or gaps limits assumed): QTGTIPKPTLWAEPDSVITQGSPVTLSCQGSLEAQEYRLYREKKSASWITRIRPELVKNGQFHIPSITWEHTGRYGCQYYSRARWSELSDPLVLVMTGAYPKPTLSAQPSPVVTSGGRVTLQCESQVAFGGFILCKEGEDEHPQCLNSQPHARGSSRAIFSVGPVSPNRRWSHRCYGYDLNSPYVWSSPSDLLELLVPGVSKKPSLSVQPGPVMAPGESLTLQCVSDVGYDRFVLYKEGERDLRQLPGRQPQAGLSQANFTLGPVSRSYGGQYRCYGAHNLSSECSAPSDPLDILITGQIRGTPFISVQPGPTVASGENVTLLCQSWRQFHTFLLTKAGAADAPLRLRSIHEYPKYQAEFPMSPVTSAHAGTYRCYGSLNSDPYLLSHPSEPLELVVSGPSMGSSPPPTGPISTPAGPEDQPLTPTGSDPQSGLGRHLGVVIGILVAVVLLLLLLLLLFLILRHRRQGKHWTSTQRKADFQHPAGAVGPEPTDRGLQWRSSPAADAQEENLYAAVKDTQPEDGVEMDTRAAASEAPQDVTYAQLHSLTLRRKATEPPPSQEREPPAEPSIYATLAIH
Put plainly: flow cytometry, HEK293T cells stably expressing human LILRB2. On the procedure: To confirm binding of LILRB2 antibodies, flow cytometry binding assays were performed using HEK293T cells stably expressing human LILRB2 (Example 3). […] The B2A-IgG1 and B2A-IgG4 chimeras bound the LILRB2-expressing HEK293T cells, with equivalent EC₅₀ values of 0.21 nM and 0.30 nM respectively.
as §2
As to B1, the “BMAX [gMFI]” value was found to be 9990 gMFI and the EC50 amounted to 0.21 ng/mL.

In the case of B2, the “BMAX [gMFI]” value was found to be 10700 gMFI and the EC50 is 0.37 ng/mL.

With B3, the “BMAX [gMFI]” value is 9950 gMFI and a half-maximal response (EC50) required 0.31 ng/mL.

A further test addresses T3, LILRB2-Fc protein (human, UniProt Q8N423 22-460, limits assumed).
T3 construct: also called human LILRB2-Fc; not shown: Fc part
Briefly: blocking ELISA, LILRB2-Fc binding to coated monomer HLA-G; Exp I. On the procedure: (§3) Tumor-associated HLA-G is an HLA Class I ligand for LILRB2. Binding of HLA-G to LILRB2 induces an immune suppressive signal in LILRB2 expressing myeloid cells. To determine if the anti-LILRB2 antibodies block the HLA-G-LILRB2 interaction and prevent the induction of an inhibitory signal, blocking ELISA assays in a dose titration were performed. 384-well plates were coated with monomer HLA-G (Fred Hutchinson Cancer Research Center, No. bHLA-G) at a concentration of 5 μg/mL, diluted in PBS, then plates were incubated at RT for 1 hour. Plates were rinsed with Wash Buffer three times, then blocked with Blocking Buffer A for 30 minutes at RT. During blocking incubation step, LILRB2-Fc protein and antibody titrations were prepared in Blocking Buffer A. LILRB2-Fc protein was then incubated with antibody titrations for 30 minutes at RT to allow for binding prior to addition onto plate. Plates were rinsed three times with Wash Buffer, then 25 μL of protein/antibody mixture was added per well and incubated for 1 hour at RT. Following antibody incubation, plates were washed three times with Wash Buffer. Anti-human IgG Fc-HRP secondary antibody was diluted and added at 25 μL/well. Plates were incubated in the dark for 1 hour at RT. Following secondary antibody incubation, plates were washed four times with Wash Buffer. 25 μL/well ultra-neat TMB was added per well for development and incubated for 5 minutes at RT. Reaction was stopped using 0.3 M HCl (25 μL/well). Absorbance was read at 450 nm using the Envision. The IC₅₀ for HLA-G blocking by clone B2A-IgG4 was 0.066 μg/mL.
(§4) Select humanized IgG4 variant antibodies were tested for their ability to block binding of human LILRB2-Fc to monomer HLA-G by ELISA, using the method described in Example 7.
Take B1: the IC50 – broadly, the concentration needed to halve the response being measured – was 5160 ng/mL.

B2 displayed an IC50 of 8110 ng/mL.

Molecule B3 gave an IC50 of 5850 ng/mL. The IC50 values of the last two molecules are within 1.5-fold of each other.

A further test has as its target T3, LILRB2-Fc protein. Put plainly: blocking ELISA, LILRB2-Fc binding to coated monomer HLA-G; Exp II. On the procedure:
as §3, §4
Molecule B1 registered an IC50 of 5140 ng/mL.

For B2, the IC50 is 9050 ng/mL. This IC50 is about 1.8-fold higher than that of the molecule before.

Turning to B3, the IC50 was determined as 5970 ng/mL. This IC50 lies about 1.5-fold lower than the previous one.

In another test the target is T1, Recombinant human LILRB2 protein (ELISA …). Put plainly: ELISA, immobilized LILRB2-His; conditioned media of transient transfections. As for the experimental part: as §1
Twenty-five IgG4 variants were expressed in mammalian cell culture as a combinatorial library of the five light and five heavy chains. In addition, B2A-IgG4 was included as a transfection control. The conditioned media from these transient transfections were assayed for human IgG concentration. A plate-based ELISA (see Example 2) was performed in which LILRB2-His was immobilized, and binding of humanized mAb variants was detected via an anti-human IgG4 HRP-labeled secondary antibody. The parental rabbit/human chimera clone transfection served as the benchmark EC₅₀ positive control.
For the molecule B1, the EC50 was 4.67 ng/mL.

With B2, the EC50 came out at 3.85 ng/mL.

Take B3: the concentration for a half-maximal effect (EC50) was determined as 4.5 ng/mL.
